Assay results taken from patent US20240247077A1 (CLEMSON UNIVERSITY RESEARCH FOUNDATION, published 2024).

What was measured:
rat CYP1A = molecular target: T1, rat CYP1A (rat (R. norvegicus), UniProt P00185 2-524); assay: immunoblot, rat liver S9 fractions
T1 construct: Endogenous protein in liver S9 fraction, immunoblot; also called Rat liver S9 fraction, Arochlor-1254-induced
T1 sequence (looked up): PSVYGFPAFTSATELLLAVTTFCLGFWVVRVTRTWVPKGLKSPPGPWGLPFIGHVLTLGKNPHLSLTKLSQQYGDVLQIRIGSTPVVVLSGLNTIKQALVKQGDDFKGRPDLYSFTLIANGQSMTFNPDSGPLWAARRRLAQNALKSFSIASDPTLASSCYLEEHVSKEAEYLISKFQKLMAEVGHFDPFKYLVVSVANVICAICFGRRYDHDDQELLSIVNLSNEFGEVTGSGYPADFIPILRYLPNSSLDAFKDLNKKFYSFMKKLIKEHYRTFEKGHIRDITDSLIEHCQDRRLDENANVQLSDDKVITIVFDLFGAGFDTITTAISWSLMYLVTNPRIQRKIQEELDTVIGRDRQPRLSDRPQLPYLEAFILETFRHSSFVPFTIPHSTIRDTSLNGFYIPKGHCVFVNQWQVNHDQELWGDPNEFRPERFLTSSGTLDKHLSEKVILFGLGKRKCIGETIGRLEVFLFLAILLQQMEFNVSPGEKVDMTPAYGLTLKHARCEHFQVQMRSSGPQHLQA
Description: Lysate protein concentration for each cell line, rat S9 fractions, and rainbow trout microsomes were matched between treated and controls, then boiled in reducing sample buffer for 7 min. Forty micrograms of each sample was then subjected to SDS-PAGE using 10-lane, 50 μL well capacity 4-20% pre-cast gels (Biorad, Richmond, CA, USA) and immunoblotting using standard procedures incorporating PDVF membranes. Immunoblots were blocked overnight with 10% horse serum (Gibco) in 0.01 M phosphate buffered saline (PBS) containing 0.05% tween twenty (PBS-T). Membranes were washed once for 10 min with PBS-T, then probed for 2 h at room temperature (RT) with mAbs as confluent supernatants diluted 1:10 in PBS-T containing a final nominal concentration of 3 ug/mL antibody. […] After 3×washes with PBS-T, membranes were incubated with NBT-BCIP (Fisher Scientific, Pittsburgh, PA, USA) as the AP substrate and activity was visualized as dark blue banding of CYP1A at the expected size of approximately 55 kDa.

mouse CYP1A = molecular target: T2, mouse CYP1A (mouse (M. musculus), UniProt P00184 1-524); assay: IHC, liver of PCB-126 treated mouse
T2 construct: Endogenous protein in Hepa1c1c7 cell lysate (immunoblot) and fixed liver (IHC); also called HEPA1C1C7; mouse hepatoma cell line CYP1A
T2 sequence (looked up): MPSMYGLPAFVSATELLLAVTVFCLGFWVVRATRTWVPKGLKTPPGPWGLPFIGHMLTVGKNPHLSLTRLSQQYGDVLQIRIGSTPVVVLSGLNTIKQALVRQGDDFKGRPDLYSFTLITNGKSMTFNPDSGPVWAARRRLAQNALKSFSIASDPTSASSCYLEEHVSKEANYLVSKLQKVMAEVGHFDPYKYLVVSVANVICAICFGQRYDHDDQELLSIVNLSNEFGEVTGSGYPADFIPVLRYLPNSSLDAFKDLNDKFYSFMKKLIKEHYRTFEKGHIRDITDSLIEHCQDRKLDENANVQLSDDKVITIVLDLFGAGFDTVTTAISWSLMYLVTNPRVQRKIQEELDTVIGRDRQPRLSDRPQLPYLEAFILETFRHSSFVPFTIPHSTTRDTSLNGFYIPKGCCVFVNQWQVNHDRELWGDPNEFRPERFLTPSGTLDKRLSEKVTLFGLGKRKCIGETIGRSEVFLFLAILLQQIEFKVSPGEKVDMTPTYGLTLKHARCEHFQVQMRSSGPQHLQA
Description: Subsequently, slides were immersed in pH 9 Tris-EDTA buffer while heating by microwave on 100% power for 5 min followed by cooling for 5 min, followed by a final 5 min 100% power, then a final 20 min cool-down period in the container at room temperature. After antigen retrieval, tissues on slides were encircled with a Liquid Blocker Super mini pen to isolate tissue slices. Thus, each slide was divided into sections where one section can act as a reagent control by withholding a primary antibody. Additional screening assays included isotype controls. Once slides were divided, all sections were treated to quench endogenous peroxidase activity for 30 min using 3% H₂O₂ in water. […] After blocking, avidin-then biotin-blocking steps (15 min each) were conducted to allow specificity to target molecules only for the avidin-biotin binding. Next, the antibody, as a hybridoma supernatant diluted 1:10 in PBS with 0.5% FBS, was added dropwise to the slides and incubated overnight at 4° C. or for 2 h at RT. After incubation, the slides were washed prior to addition of the secondary (biotinylated) antibody for a 30 min incubation at RT. After washing, Vectastain ABC reagent was added for 30 min prior to staining.

[1] = molecular target: T3, recombinant human CYP1A1 expressed in HEK cells (human (H. sapiens), UniProt P04798 1-512); assay: immunoblot, HEK cell lysate with recombinant human CYP1A1
T3 construct: Bought over-expression lysate; also called OriGene LC400170
T3 sequence (looked up): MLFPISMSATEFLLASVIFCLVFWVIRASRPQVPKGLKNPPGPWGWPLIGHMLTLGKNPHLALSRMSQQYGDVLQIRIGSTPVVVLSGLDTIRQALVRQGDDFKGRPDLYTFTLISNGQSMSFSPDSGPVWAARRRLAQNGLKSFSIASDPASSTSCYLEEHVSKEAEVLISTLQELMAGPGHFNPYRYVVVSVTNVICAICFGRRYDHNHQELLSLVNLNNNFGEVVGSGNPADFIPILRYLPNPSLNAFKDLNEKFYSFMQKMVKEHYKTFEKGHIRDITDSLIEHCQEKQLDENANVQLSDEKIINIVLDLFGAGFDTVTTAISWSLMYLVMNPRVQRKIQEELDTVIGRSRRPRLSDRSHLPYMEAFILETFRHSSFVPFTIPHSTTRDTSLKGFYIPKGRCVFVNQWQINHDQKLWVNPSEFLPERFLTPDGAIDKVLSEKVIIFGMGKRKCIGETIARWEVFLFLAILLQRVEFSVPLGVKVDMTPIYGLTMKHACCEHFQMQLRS
Description: HEK cells were grown in media only as a cell-specific source of control cell lysate for comparison with over-expressed recombinant CYP1A1 in HEK cell lysates from the supplier.
Media was then removed from cells, replaced with 0.25% trypsin, and incubated until cells lifted from attachment. Cells were then pelleted by centrifugation to obtain a dry pellet, covered with ice-cold 300-400 μL RIPA buffer (Thermo Fisher, Waltham, MA, USA) supplemented with 2×HALT protease inhibitor cocktail (Pierce), followed by resuspension using a vortex device and placement on ice for 20 min. Suspensions were then sonicated, transferred to 1.5 mL tubes, and centrifuged 12,000×g for 20 min. Overlying supernatants were removed and transferred to clean tubes and the protein content quantified. Lysate protein concentration for each cell line, rat S9 fractions, and rainbow trout microsomes were matched between treated and controls, then boiled in reducing sample buffer for 7 min. Forty micrograms of each sample was then subjected to SDS-PAGE using 10-lane, 50 μL well capacity 4-20% pre-cast gels (Biorad, Richmond, CA, USA) and immunoblotting using standard procedures incorporating PDVF membranes. Immunoblots were blocked overnight with 10% horse serum (Gibco) in 0.01 M phosphate buffered saline (PBS) containing 0.05% tween twenty (PBS-T). […]

binding result (rat CYP1A): binds | binding result (mouse CYP1A): binds | binding result [1]: binds
B1: mAb CRC4 (antibody, mouse IgG1, kappa, V domains shown)
VH: QVTLKESGPGILQPSQTLSLTCSFSGFSLSTSGMGVNWIRKPSGKGLEWLAHIFWDDDKRYNPSLKSRLTISKDTSRNQVFLMITSVDTADTATYYCASLAMDYWGQGTSVTVSS
VL: DIVMTQGASSVTVTPGESVSISCRSSKSLLHSNGRTFLYWFLQRPGQSPQLLIYRMSNLASGVPDRVSGSGSGTAFTLRISRVEAEDVGVYYCMQHLEYPFTFGGGTRLELKR
notes: Mouse IgG1 kappa from a hybridoma, used as confluent hybridoma supernatant (nominally 3 ug/mL after 1:10 dilution); also called monoclonal antibody CRC4; CRC4_1
